Measured values published in the supplement of paper PMC10567573.
± gives the standard deviation.

Test: protein stability index of a GFP-peptide fusion (GPS, HEK-293T) (PSI 1-6); higher = more stable
Conditions: c terminus: a fixed tail appended
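Note: 24-mer peptide tiles fused after GFP, lentivirally expressed, FACS-sorted into six equal bins by GFP/DsRed ratio, decoded by Illumina sequencing, PSI is the read-weighted mean bin number.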

Row | Sequence | protein stability index (treatment: DMSO) | protein stability index (treatment: MLN4924 1 uM, 8 h)
1 | NQQIHEQEKKILELEKLAEKNIIL [MTUS2] | 4.13 ± 0.18 | 4.25 ± 0.17
2 | NRIGNSGVEEIKGHPFFEGVDWEH [STK38L] | 4.32 ± 0.26 | 4.45 ± 0.21
3 | NSCINPIALYFVSKKFKNCFQSCL [EDNRA] | 3.27 ± 0.34 | 
4 | NSGLINHQRIHTGEKPYECVQCGK [ZNF24] | 3.92 ± 0.17 | 3.99 ± 0.31
5 | NSLDTTSWAWRGPGVLKVLWLTAS [LPCAT4] | 2.43 ± 0.62 | 2.25 ± 0.47
6 | NSSQSSSDGSCKTAGEMVFVYENA [BTBD10] | 4.22 ± 0.3 | 4.15 ± 0.22
7 | NTSLHVFVLDENDNAPAVLHPRPD [PCDHGC5] | 3.49 ± 0.27 | 3.51 ± 0.2
8 | NVLKSYIGLGHIYSGTFALIGAAA [CLCN6] | 3.63 ± 0.91 | 3.04 ± 0.32
9 | NYFSAMYSSEDSTLASVPPAATFG [ELF3] | 3.06 ± 0.3 | 3.17 ± 0.43
10 | NYRIMSYFKEAELKDLLLQVGRGL [WEE1] | 2.46 ± 0.87 | 2.15 ± 0.4
11 | PAATMAVELHYEEGSPRNLGTPTS [C2CD2L] | 4.4 ± 0.17 | 4.52 ± 0.2
12 | PAGAEYCSSARHPAWGHCFYRLYQ [SCNN1D] | 2.08 ± 0.38 | 2.68 ± 0.35
13 | PAIIFEDANLDECIPATVRSSFAN [ALDH8A1] | 3.69 ± 0.15 | 3.72 ± 0.2
14 | PASTPSVLSSEQEFQMFPKSRLSS [ETS2] | 4.57 ± 0.21 | 4.57 ± 0.24
15 | PDPPVNFLRQKVLSLPLPDPLKYY [PCMTD2] | 2.85 ± 0.13 | 2.93 ± 0.079
16 | PDSHQKRPQHSHSNKKRPSLDGRD [ELOA2] | 5.33 ± 0.17 | 5.14 ± 0.21
17 | PEKEYQRQVWLLFEYPESSGPARV [KCNA1] | 2.59 ± 0.29 | 2.06 ± 0.33
18 | PEKRTQYFDPLRNEYFFDRNRPSF [KCNA4] | 2.74 ± 0.25 | 3.03 ± 0.13
19 | PESQFPEFSTSLFSGSLEPVACGS [SRPK2] | 4.21 ± 0.26 | 4.29 ± 0.064
20 | PFHDSDPSALFSKIRRGQFCIPEH [TRIB1] | 3.13 ± 0.25 | 3.12 ± 0.44
21 | PGFSTLSLADQMSLLQSAWMEILI [ESRRG] | 2.27 ± 0.88 | 2.29 ± 0.4
22 | PGRSSVASPRRLSNVSSSGSINLL [MAP2] | 3.63 ± 0.16 | 3.48 ± 0.16
23 | PHWLDKWMLTRKQFGLLSFFFAVL [STEAP1] | 2.27 ± 0.28 | 2.26 ± 0.38

Row | Sequence | protein stability index (treatment: DMSO) | protein stability index (treatment: MLN4924 1 uM, 8 h)
24 | PIMAKEGQLYAMELQGFWMDIGQP [GMPPB] | 2.23 ± 0.25 | 2.14 ± 0.31
25 | PKEPAPPNGSAAEPPTEAASREEN [PALM] | 5.57 ± 0.25 | 5.37 ± 0.43
26 | PKGLDDESKDYLSLYLLLVSCPKS [SPOPL] | 2.34 ± 0.38 | 2.95 ± 0.69
27 | PLFMAAFDGRHSQTLKAMVQAWPF [PRAME] | 2.16 ± 0.13 | 2.07 ± 0.31
28 | PLSDKGTTPLQLAIIRERSSCVKI [ASB7] | 2.64 ± 0.22 | 2.81 ± 0.4
29 | PLTEQEESSPSHDRSRTVSASSTG [SRPK2] | 5.25 ± 0.28 | 5.51 ± 0.23
30 | PLTLQSQPKEPQLTCDSAQKCHSI [ZSCAN9] | 4.36 ± 0.29 | 4.39 ± 0.15
31 | PLVKKHCDDSFTPQEKLWQQLRRG [CPOX] | 3.49 ± 0.21 | 3.57 ± 0.2
32 | PLWQCYLGRFNDINVPIRLECVKF [PDS5B] | 2.46 ± 0.54 | 2.35 ± 0.28
33 | PNFVKDLEEDLYELFKKDPGFDRG [PI4K2A] | 3.79 ± 0.081 | 3.72 ± 0.32
34 | PNVLCSMSGKSPVESSLNVKTKKN [FBXO34] | 4.84 ± 0.29 | 4.9 ± 0.1
35 | PPATLGEGSADTEDRKLPAPGADV [EHMT1] | 5.47 ± 0.3 | 5.58 ± 0.13
36 | PPLWAASAAGHLKVVQSLLNHGAS [FEM1C] | 2.58 ± 0.43 | 2.76 ± 0.23
37 | PPQPGCPAFIIVKLSPLRDRLVVT [ZSWIM9] | 2.93 ± 1 | 2.99 ± 0.94
38 | PPTPGRPSLGPALSTGPRGLCAMP [VENTX] | 3.86 ± 0.37 | 3.73 ± 0.26
39 | PQLKKESELPFVPNYLANPAFPFI [ANKRD40] | 2.82 ± 0.34 | 2.87 ± 0.085
40 | PRESTDFSSSSQEAFAASAVGSGE [ZBTB22] | 5.22 ± 0.26 | 5.31 ± 0.27
41 | PRIEASKVLLCHGELRSKSGHKLY [NET1] | 2.64 ± 0.46 | 2.81 ± 0.34
42 | PRLSQLSVTDVTTSSLRLNWEAPP [TNXB] | 3.5 ± 0.4 | 
43 | PRRKKLKSTSKYIYQTLFLNGENS [GMCL1] | 2.69 ± 0.17 | 2.79 ± 0.16
44 | PSITRKRRYVASVSLHDRIYVIGG [KLHL12] | 2.24 ± 0.26 | 2.13 ± 0.4
45 | PSLEAGNPAPAAPCPLGEPKTQAC [MYCL] | 5.26 ± 0.14 | 5.32 ± 0.11
46 | PSRVHASEVESAVWYVKKFGRYLE [FBXO39] | 2.42 ± 0.16 | 2.27 ± 0.5
